From US20210145976A1 (ARO BIOTHERAPEUTICS, published 2021)

Tests used:
[1] = molecular target: T1, recombinant biotinylated CD71 extracellular domain (Sino Biologics) with an N-terminal 6His tag (human, UniProt P02786 89-760, biotinylated (sites not given)); assay: screening ELISA
T1 construct: extracellular domain; also called hCD71; huCD71

[2] = molecular target: T1, recombinant biotinylated CD71 …; assay: screening ELISA, ratio
[3] = molecular target: CD71 on SK-BR-3 cells (human, UniProt P02786 1-760); assay: cell-based or functional assay
CD71 on SK-BR-3 cells, sequence (P02786 whole entry): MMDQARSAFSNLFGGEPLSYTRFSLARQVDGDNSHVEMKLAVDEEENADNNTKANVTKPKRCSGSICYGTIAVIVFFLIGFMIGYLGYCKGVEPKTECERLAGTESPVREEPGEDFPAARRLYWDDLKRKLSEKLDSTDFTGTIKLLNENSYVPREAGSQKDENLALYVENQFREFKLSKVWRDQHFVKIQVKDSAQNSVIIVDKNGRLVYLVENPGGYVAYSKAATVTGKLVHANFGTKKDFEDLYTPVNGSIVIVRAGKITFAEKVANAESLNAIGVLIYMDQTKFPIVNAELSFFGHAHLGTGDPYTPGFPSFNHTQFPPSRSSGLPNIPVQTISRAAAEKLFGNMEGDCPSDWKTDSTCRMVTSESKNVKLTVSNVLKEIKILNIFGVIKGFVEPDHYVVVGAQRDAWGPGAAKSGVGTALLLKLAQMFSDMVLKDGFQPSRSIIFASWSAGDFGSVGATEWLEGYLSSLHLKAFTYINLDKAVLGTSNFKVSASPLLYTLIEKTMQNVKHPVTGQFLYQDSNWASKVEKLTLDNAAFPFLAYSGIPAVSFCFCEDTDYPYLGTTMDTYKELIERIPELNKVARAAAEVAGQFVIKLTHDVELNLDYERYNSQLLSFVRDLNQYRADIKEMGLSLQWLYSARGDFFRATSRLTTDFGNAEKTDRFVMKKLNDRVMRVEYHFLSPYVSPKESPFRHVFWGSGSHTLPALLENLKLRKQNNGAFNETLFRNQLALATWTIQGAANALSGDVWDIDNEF

T1 sequence (P02786 other isoform, or with tags, fused parts or gaps): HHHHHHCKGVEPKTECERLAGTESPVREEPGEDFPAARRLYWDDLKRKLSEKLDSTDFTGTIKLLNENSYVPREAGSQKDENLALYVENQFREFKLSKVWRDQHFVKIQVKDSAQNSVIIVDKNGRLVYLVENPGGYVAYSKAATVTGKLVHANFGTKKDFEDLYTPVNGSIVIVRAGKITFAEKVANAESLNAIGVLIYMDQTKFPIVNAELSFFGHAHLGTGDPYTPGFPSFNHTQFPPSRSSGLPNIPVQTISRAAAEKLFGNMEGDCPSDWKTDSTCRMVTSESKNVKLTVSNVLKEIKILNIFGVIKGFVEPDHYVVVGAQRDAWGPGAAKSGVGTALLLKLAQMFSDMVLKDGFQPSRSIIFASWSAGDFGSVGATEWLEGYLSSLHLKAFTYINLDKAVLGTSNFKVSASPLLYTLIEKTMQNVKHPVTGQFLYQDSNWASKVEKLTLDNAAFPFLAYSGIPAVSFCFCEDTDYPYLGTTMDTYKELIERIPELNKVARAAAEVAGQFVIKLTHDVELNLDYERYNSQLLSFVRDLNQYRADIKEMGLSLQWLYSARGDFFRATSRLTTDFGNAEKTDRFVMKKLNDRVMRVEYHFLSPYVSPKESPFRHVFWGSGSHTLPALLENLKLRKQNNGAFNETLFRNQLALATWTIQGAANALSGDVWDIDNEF

| hCD71 [1] | hCD71:HSA [2] | Binder | IC50, SKBR-3 viability, MMAF conjugate, first unlabelled column (+/- human transferrin) [3] [nM] | IC50, SKBR-3 viability, MMAF conjugate, second unlabelled column (+/- human transferrin) [3] [nM] |
| --- | --- | --- | --- | --- |
| 3.92e+06 | 2910 | SEQ ID NO 235 (designed binder, FN3 domain) MLPAPKNLVVSRVTEDSARLSWTAPDAAFDSFSINYREWWSDGEAIYLPVPGSERSYDLTGLKPGTEYAVYIQGVKGGSRSFPLHAWFTT | 1.75 | 10.6 |
| 2.44e+06 | 1160 | SEQ ID NO 259 (designed binder, FN3 domain) MLPAPKNLVVSRVTEDSARLSWTAPDAAFDSFTIEYFEFVDAGEAIVLTVPGSERSYDLTGLKPGTEYWVEIWGVKGGSWSKPLSAIFTT | 27.5 | – |
| 2.98e+06 | 1190 | SEQ ID NO 252 (designed binder, FN3 domain) MLPAPKNLVVSRVTEDSARLSWTAPDAAFDSFDIGYTEYGGYGEAIVLTVPGSERSYDLTGLKPGTEYWVLIQGVKGGGSSVPLSAIFTT | 24.6 | 7.74 |
| 2.67e+06 | 126 | SEQ ID NO 302 (designed binder, FN3 domain) MLPAPKNLVVSRVTEDSARLSWTAPDAAFDSFDIYYPEYYDRGEAIVLTVPGSERSYDLTGLKPGTEYTVYIDGVKGGGGSGPLSAIFTT | 164 | 27.8 |
| 3.69e+06 | 568 | SEQ ID NO 278 (designed binder, FN3 domain) MLPAPKNLVVSRVTEDSARLSWTAPDAAFDSFPIAYAEPRPDGEAIVLTVPGSERSYDLTGLKPGTEYSVLIHGVKGGHLSDPLSAIFTT | 13.2 | 3.7 |
| 2.7e+06 | 844 | SEQ ID NO 296 (designed binder, FN3 domain) MLPAPKNLVVSRVTEDSARLSWTAPDAAFDSFFIGYLEPQPPGEAIILTVPGSERSYDLTGLKPGTEYNVTIQGVKGGFPSMPLSAIFTT | 29.3 | 18.6 |
| 2.19e+06 | 503 | SEQ ID NO 307 (designed binder, FN3 domain) MLPAPKNLVVSRVTEDSARLSWTAPDAAFDSFPITYSEPAHYGEAIVLTVPGSERSYDLTGLKPGTEYHVGIMGVKGGVFSSPLSAIFTT | 47.9 | 30.8 |
| 3.51e+06 | 1330 | SEQ ID NO 303 (designed binder, FN3 domain) MLPAPKNLVVSRVTEDSARLSWTAPDAAFDSFFIAYFEFANPGEAIVLTVPGSERSYDLTGLKPGTEYKVVIQGVKGGTPSEPLSAIFTT | 33 | 39 |
| 4.23e+06 | 763 | SEQ ID NO 261 (designed binder, FN3 domain) MLPAPKNLVVSRVTEDSARLSWTAPDAAFDSFTIVYGEWGVPGEAIVLTVPGSERSYDLTGLKPGTEYDVWIEGVKGGDLSWPLSAIVTT | 1.24 | 31.2 |
| 1.74e+06 | 441 | SEQ ID NO 222 (designed binder, FN3 domain) MLPAPKNLVVSRVTEDSARLSWTAPDAAFDSFYIEYFEWTGSGEAIVLTVPGSERSYDLTGLKPGTEYNVAIYGVKGGAVSYPLSAIFTT | – | 28.2 |

Continued, binder first:

| Binder | hCD71 [1] | hCD71:HSA [2] | IC50, SKBR-3 viability, MMAF conjugate, first unlabelled column (+/- human transferrin) [3] [nM] | IC50, SKBR-3 viability, MMAF conjugate, second unlabelled column (+/- human transferrin) [3] [nM] |
| --- | --- | --- | --- | --- |
| SEQ ID NO 115 (designed binder, FN3 domain) MLPAPKNLVVSRVTEDSARLSWTAPDAAFDSFFIGYLEPQPPGEAIVLTVPGSERSYDLTGLKPGTEYNVTIQGVKGGFPSMPLSAIFTTT | 2.92e+06 | 846 | 24.2 | 10.4 |
| SEQ ID NO 217 (designed binder, FN3 domain) MLPAPKNLVVSRVTEDSARLSWTAPDAAFDSFIIEYWEWYFAGEAIVLTVPGSERSYDLTGLKPGTEYTVWITGVKGGTWSEPLSAIFTT | 3.9e+06 | 332 | 15.8 | 2.46 |
| SEQ ID NO 134 (designed binder, FN3 domain) MLPAPKNLVVSRVTEDSARLSWTAPDAAFDSFWIDYYERKYVGEAIVLTVPGSERSYDLTGLKPGTEYEVTIYGVKGGWYSDPLSAIFTT | 3.08e+06 | 1580 | 165 | 8.54 |
| SEQ ID NO 95 (designed binder, FN3 domain) MLPAPKNLVVSRVTEDSARLSWTAPDAAFDSFRISYYEWYDLGEAIVLTVPGSERSYDLTGLKPGTEYWVDIAGVKGGYYSYPLSAIFTT | 4.21e+06 | 2210 | 28.3 | 12.7 |
| SEQ ID NO 92 (designed binder, FN3 domain) MLPAPKNLVVSRVTEDSARLSWTAPDAAFDSFLIRYWEWYVLGEAIVLTVPGSERSYDLTGLKPGTEYYVEISGVKGGWQSWPLSAIFTT | 3.85e+06 | 2960 | 5.49 | 1.06 |
| SEQ ID NO 190 (designed binder, FN3 domain) MLPAPKNLVVSRVTEDSARLSWTAPDAAFDSFFIGYPEYPATGEAITLFVPGSERSYDLTGLKPGTEYNVVIQGVKGGRPSNPLVVAFTT | 3.21e+06 | 656 | 36 | 12 |
| SEQ ID NO 104 (designed binder, FN3 domain) MLPAPKNLVVSHVTEDSARLSWTAPDAAFDSFDIEYYELVGSGEAIVLTVPGSERSYDLTGLKPGTEYYVAIYGVKGGYLSRPLSAIFTT | 3.58e+06 | 2100 | 301 | 5.9 |
| SEQ ID NO 112 (designed binder, FN3 domain) MLPAPKNLVVSRVTEDSARLSWTAPDAAFDSFFIAYFEFANPGEAIVLTVPGSERSYDLTGLKPGTEYKVVIQGVKGGTPSEPLSAISTT | 3.65e+06 | 514 | 27.3 | 4.55 |
| SEQ ID NO 194 (designed binder, FN3 domain) MLPAPKNLVVSRVTEDSARLSWTAPDAAFDSFEIDYDELAIYGEAIVLTVPGSERSYDLTGLKPGTEYRVFIYGVKGGWTSWPLSTIFTT | 562000 | 32 | – | 5.09 |
